Tests used:
E. coli ATCC 25922 = test: Microbicidal activity: counting colonies on Petri dishes; format: cell-based; settings: 1 h contact with 1.10^6 CFU/mL, 25 mM SCN^−, pH7.4; enzyme alone: wt RbMPO 300 nM or GOxaspniger 25 nM
Method: 10 mL of TSB medium (pH7.4) was inoculated with a freshly obtained colony of E. coli ATCC 25922, and the culture was incubated at 37° C. and 190 rpm overnight. In the morning, 25 mL of TSB medium were inoculated with the previous day's pre-culture to obtain an OD620 nm of 0.07 at TO. When the bacterial culture reached the exponential phase, the bacterial solution was diluted 10-fold in TSB in order to reach 1.10^6 CFU/mL. This dilution was then contacted with the enzyme solution for 1 hour (in a final volume of 1 mL). Further dilutions were then made (10^−1, 10^−4, 10−5, 10^−6). 100 μL of these solutions were spread on a Petri dish containing TSB agar medium and placed at 37° C. overnight. The next day, the surviving colonies were counted and the number of CFU/mL was calculated using the formula below: […]

[1] = Steady-state kinetics by stopped-flow, H2O2 range at fixed (pseudo)-halogen ions; format: biochemical; settings: wt RbMPO 267 nM
Method: For the halides Cl^− and Br^−, the ranges were not performed at halide saturation but at 500 and 100 mM respectively (data not shown).

[2] = Steady-state kinetics by stopped-flow, NaCl (Tau-NHCl formation, 253 nm); format: biochemical; settings: NaCl range (k2), 300 nM of enzyme and 79 μM of H2O2
Method: (§1) pH- and temperature-dependent studies were carried out for each substrate.
(§2) These temperatures were reached by using a stopped-flow coupled to a cryostat.
(§3) For temperature and pH measurements, RbMPO was set at the same concentration as in the determination of steady state kinetics parameters.

[3] = tested on: E. coli strain ATCC 25922; test: Microbicidal activity: bacterial growth kinetics in a microplate (A620nm, 16 h); format: cell-based; settings: for inhibition of bacterial growth: glucose 14 mM, pH 7.4, 37° C.
Method: The microbicidal activity of RbMPO towards the E. coli strain ATCC 25922 was evaluated by two independent experiments.
E. coli 25922 were grown on TSB-agar for 16 h at 37° C. One colony is grown in 10 ml of TSB medium under stirring at 190 rpm at 37° C. The optical density (OD) of the bacterial preculture was measured at 620 nm in a spectrophotometer (Ultrospec 10, Biochrom). 25 ml of TSB medium was inoculated to obtain an OD of approximately 0.09. When the OD was between 1 and 2, a dilution in 10 mL of TSB medium was performed to obtain 2×10^6 CFU/ml. Bactericidal tests were performed in 96-well microplates under a final volume of 100 μl with 10^6 CFU/ml. The plate cover was treated with 0.05% TritonX−100 and 20% ethanol to prevent condensation and thus avoid misreading of the wells by the instrument. The solution was allowed to act on the lid for 10 minutes, then removed and dried under a class II biological safety cabinet. Each tested condition was performed at least in triplicate and each experiment was repeated at least 3 times. The kinetics was set to 16 h with a measurement at 620 nm every 15 minutes in a microplate reader (Wallac Victor 2,1420 Multilabel counter) thermostated at 37° C. [shaking duration: 10.0s; shaking speed: fast; shaking diameter: 0.5 mm; shaking type: orbital; measurement time: 0.2s; numbers of replicates: 60; time between replicates: 900 s; label: P620]. […] 5 mM bleach was used as a positive control and bacteria alone was used as a negative control. • By counting colonies on Petri dishes

[4] = Pre-steady state: return of wt RbMPO to its native state, Br^− range; format: biochemical; settings: H2O2: 20 μM
Method: (§4) Kinetic parameters under pre-steady-state condition were performed with a Biologic SFM400 stopped-flow at 412 nm, 37° C. and with 50 mM sodium phosphate buffer at pH7.5. […] An exponential linear fit was applied to each kinetic using the following formula: […]
(§5) The return of the enzyme to its native state was studied by the impact of increasing concentrations of (pseudo)-halides substrates on compound I (FIG. 9B). […] It is the time difference (s) between the two characteristic steps that allowed the calculation of the values of the Vreturn(μM^−1.s^−1) values: […]

[5] = Steady-state kinetics by stopped-flow, NaBr (Tau-NHBr formation, 289 nm); format: biochemical; settings: Br^− 500 mM, 267 nM RbMPO, H2O2 79 μM
Method: as §1, §2, §3

[6] = Heme reconstitution of apo wt and mutated RbMPOs (tryptophan fluorescence quenching); format: binding; settings: heme reconstitution of apo enzyme; 1 μM enzyme, 50 mM sodium phosphate pH7.5, 25° C.
Method: Sample dilutions were performed in a 50 mM pH7.5 sodium phosphate buffer.

[7] = Pre-steady state: return of wt RbMPO to its native state, Cl^− range; format: biochemical; settings: H2O2: 20 μM
Method: as §4, §5

[8] = Steady-state kinetics by stopped-flow, NaSCN (hypothiocyanate formation, 240 nm); format: biochemical; settings: for kss: SCN^− 5 mM, 267 nM RbMPO, H2O2 79 μM
Method: as §1, §2, §3

[9] = Stability of myeloperoxidase activity of wt RbMPO on storage in different buffers; format: physicochemical; settings: stored in PBS buffer pH 6.6 at 37° C., up to 60 minutes
Method: The enzyme was concentrated at […] for the 4° C. storage condition and at 132.2 μM for the 37° C. storage condition. The MPO activity of the enzyme was assessed at different time points by a standard activity test.
The MPO activity of the enzyme was assessed at different time points by a standard activity test. To do so, the concentrated enzyme was diluted and contacted with H2O2, NaCl and APF.
The value obtained at TO is defined as 100% of the enzymatic (MPO) activity at the temperature tested and all the other activities are calculated from this TO timepoint.

B1: wt RbMPO: novel bacterial heme peroxidase (myeloperoxidase-catalase) of about 78 KDa from Rhodopirellula baltica, SEQ ID NO: 1, produced recombinantly in E. coli (protein, listed as Rhodopirellula baltica)
chain: MLFWSKRTRKHPGRKRRRLRSEQLESRQLLAADFGGYRHNIYDAEDVNDDGRVSAIDALLVINAMTSETSRDENVFTDVNGDGRRSALDALRVINRIERGDVFPIDTSGDEDLNTLLPEMPSEVRSIDGSGNNPNDHLWGSVGQRLIRMAPAAYGDGISTLAGANRPSAREVSNVLSAMNTSQVLNDRGLSAFVYVWGQFIDHDLGLTESDEHGEAIDISVPEGDLWFDPMGSGEAVIPMTRTPIADGTGTSVGNPAQQFNQITAFIDGSMVYGSDAATAERLRTFAGGRLAISDNGLLPMDESGMVIAGDVRASENVGLTAIQTLFVREHNRLADEIFAADPEATDEEIYQRARLVVASLIQSITYNEFLPALLGQRAMDSYRGYDASVNPGIANEFSTAAFRLGHSTLRDEVGFMSNDGRESKDEMELKDAFFHASMLEETGIDSLLKFDASVQAQEIDLAVVDSLRNFLFGPPGAGGLDLVAMNIQRGRDHGLSDYNTTRQAYGLDRVETFDQITGDVELQQKLASLYGTVDNIDLWVGLMAEDHQHDASVGELTGLIIADQFQRTRDGDRFFYKNVLTDSEVESIERSTLADLIERNTSVDGLQENVFFMQVELRGRVILASSIPPNTMPSEVREEEIRGVSGMAIELIDASGKLVDSTVSDQHGNYRFRALSETGDYQVRLSESGEAMDVLVAHGAERIRGLDFIVLA
surviving bacteria (E. coli ATCC 25922): 13,850,000±4,454,773 CFU/mL
KMapp ([1]; Br (100 mM)): 0.23 ± 0.21 mM
KMapp ([1]; SCN (5 mM)): 0.12 ± 0.04 mM
kss/[Cl^−] [2]: 5.46 ± 0.67 M⁻¹ s⁻¹
excess of wt RbMPO over GOxaspniger required for 100% bactericidal effect ([3]; 10 nM GOxaspniger, 25 mM SCN^−, pH 7.4): at least 15 times
inhibition of bacterial growth ([3]; 150 nM wt RbMPO and 10 nM GOxaspniger (15:1 ratio), 25 mM SCN^−): 100%
inhibition of bacterial growth ([3]; 300 nM wt RbMPO and 25 nM GOxaspniger (12:1 ratio), 25 mM SCN^−): 100%
inhibition of bacterial growth ([3]; 300 nM wt RbMPO and 30 nM GOxaspniger (10:1 ratio), 25 mM SCN^−): 100%
bactericidal effect ([3]; 25 mM SCN (pH 7.4), between 10 and 30 nM GOxaspniger, from 300 nM wt RbMPO): 100%
kreturn/K1/2 [4]: 607.77 ± 161.51 M⁻¹ s⁻¹
kss ([5]; 37° C., pH 4): 0 ± 0 s⁻¹
kss ([5]; 37° C., pH 5): 1.5 ± 0.004 s⁻¹
kss ([5]; 37° C., pH 6): 14.5 ± 0.03 s⁻¹
kss ([5]; 37° C., pH 7): 11.0 ± 0.02 s⁻¹
kss ([5]; 37° C., pH 8): 4.8 ± 0.01 s⁻¹
kss ([5]; 37° C., pH 9): 1.3 ± 0.004 s⁻¹
kss ([5]; 37° C., pH 10): 0.8 ± 0.007 s⁻¹
kss ([5]; pH 7.5, 10° C.): 9.5 ± 0.01 s⁻¹
kss ([5]; pH 7.5, 20° C.): 23.4 ± 0.02 s⁻¹
kss ([5]; pH 7.5, 30° C.): 24.8 ± 0.02 s⁻¹
kss ([5]; pH 7.5, 37° C.): 19.5 ± 0.01 s⁻¹
kss ([5]; pH 7.5, 40° C.): 29.1 ± 0.02 s⁻¹
kss ([5]; pH 7.5, 50° C.): 21.1 ± 0.01 s⁻¹
kss ([5]; pH 7.5, 60° C.): 37.8 ± 0.03 s⁻¹
k2 [6]: 1430 ± 74.4 M⁻¹ s⁻¹
kreturn/K1/2 [7]: 5169 ± 4872 M⁻¹ s⁻¹
kss ([8]; 37° C., pH 4): 0.7 ± 0.04 s⁻¹
kss ([8]; 37° C., pH 5): 5.4 ± 0.02 s⁻¹
kss ([8]; 37° C., pH 6): 27.0 ± 0.06 s⁻¹
kss ([8]; 37° C., pH 7): 42.8 ± 0.13 s⁻¹
kss ([8]; 37° C., pH 8): 20.4 ± 0.03 s⁻¹
kss ([8]; 37° C., pH 9): 3.1 ± 0.02 s⁻¹
kss ([8]; 37° C., pH 10): 0 ± 0 s⁻¹
kss ([8]; pH 7.5, 10° C.): 5.0 ± 0.01 s⁻¹
kss ([8]; pH 7.5, 20° C.): 37.6 ± 0.10 s⁻¹
kss ([8]; pH 7.5, 30° C.): 56.3 ± 0.10 s⁻¹
kss ([8]; pH 7.5, 37° C.): 63.2 ± 0.11 s⁻¹
kss ([8]; pH 7.5, 40° C.): 55.5 ± 0.14 s⁻¹
kss ([8]; pH 7.5, 50° C.): 56.5 ± 0.14 s⁻¹
kss ([8]; pH 7.5, 60° C.): 67.2 ± 0.22 s⁻¹
substrate specificity ([8]; from steady-state NaSCN, NaBr and NaCl ranges): SCN^−>Br^−>Cl^−
fall of myeloperoxidase activity [9]: 50%
